This assay addresses T1, Soluble Aβ 1-40 (UniProt P05067 672-711).
T1 construct: domain: Aβ 1-40; Unaggregated, predominantly monomeric peptide flowed over captured antibody; The numbers 1-40 count on the Aβ peptide, not on the APP precursor
The experiment in a line: BIAcore SPR, alternate method: antibody captured on protein A or A/G, Aβ 1-40 in flow, 5 hour dissociation, 1:1 model with mass transfer; alternate method: antibody captured on protein A or A/G, 5 hour dissociation. For orientation: In SPR one partner is held on a chip, and binding of the other changes the refractive index at the surface.

We go through one molecule from US20040241164A1 (published 2004).

Experimental: Protein A or protein A/G is immobilized via amine coupling to flow cells 1 and 2 of a B1 or CM5 sensor chip (BIAcore). The test antibody is then captured in flow cell 2 at desired levels (usually a 10-60 second injection of antibody) and 5 minutes is allowed for the antibody to stabilize. […] Each concentration is injected over the surface for 5 minutes at a flow rate of 50 μL/min. […] Aβ 1-40 and antibody are then eluted from both flow cells with a 40 second injection of glycine (pH 1.5). The signal is allowed to stabilize for 2 minutes before the next cycle. The data from flow cell 1 is subtracted from flow cell 2 to account for any bulk shifts due to buffer differences or non-specific binding to the sensor chip or protein A. The various concentrations are injected randomly and each concentration is run in duplicate. Two 0 nM runs are used to control for any dissociation of antibody from the protein A or A/G capture surface. The data is analyzed using the Biaevalution software. A 1:1 model with mass transfer and a local Rmax is used as the best fit for the data.

B1: humanized 266 antibody (antibody, human IgG1, kappa, V domains shown)
VH: EVQLVESGGGLVQPGGSLRLSCAASGFTFSRYSMSWVRQAPGKGLELVAQINSVGNSTYYPDTVKGRFTISRDNAKNTLYLQMNSLRAEDTAVYYCASGDYWGQGTLVTVSS
VL: DVVMTQSPLSLPVTLGQPASISCRSSQSLIYSDGNAYLHWFLQKPGQSPRLLIYKVSNRFSGVPDRFSGSGSGTDFTLKISRVEAEDVGVYYCSQSTHVPWTFGQGTKVEIKR
Take B1: the Kd (usually the equilibrium constant for the complex coming apart) was 0.4 nM.
